Assay results taken from the supplement of paper PMC12855868.

B1: library; numbered along this chain (parent)
chain: MAAAGGARLLRAASAVLGGPAGRWLHHAGSRAGSSGLLRNRGPGGSAEASRSLSVSARARSSSEDKITVHFINRDGETLTTKGKVGDSLLDVVVENNLDIDGFGACEGTLACSTCHLIFEDHIYEKLDAITDEENDMLDLAYGLTDRSRLGCQICLTKSMDNMTVRVPETVADARQSIDVGKTS

Variants of: B1
Assay: scaled log2 fold change in cell abundance, elesclomol vs control (0 = silent mean, 1 = nonsense mean) (scaled log2 ratio); higher = higher viability under elesclomol (loss of FDX1 cuproptosis function)
Conditions: glucose 10 mM
Procedure: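 Deep mutational scan of full-length human FDX1: a pooled saturation-mutagenesis ORF library (every residue 2-184 mutated to all 19 amino acids plus stop, and silent codons where available) was expressed by lentivirus in FDX1-knockout ABC1 (14 days) or HEK293T (11 days) cells grown with elesclomol (ES) or DMSO control. Variant abundance came from ORF sequencing. The log2 fold change (ES vs control, mean of duplicates) was centred on the silent-variant mean (0) and scaled to the nonsense-variant mean (1). Higher values mean greater viability under ES, i.e. loss of FDX1 function in cuproptosis.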

[1] = with ABC1 FDX1 KO, elesclomol 5 nM, 14 days
[2] = with HEK293T FDX1 KO, elesclomol 40 nM, 11 days
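Further: variant abundance is its share of total variant reads in each endpoint sample, from next-generation sequencing of the integrated ORF PCR-amplified out of genomic DNA.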

Variant	scaled log2 fold change [1]	scaled log2 fold change [2]
A3L	-0.261	0.507
A3G	0.242	-0.188
A3I	0.134	-0.0748
A3C	0.227	0.756
A3T	0.122	-0.0717
A3E	0.299	1.21
A3Y	-0.181	0.561
A3R	0.464	-0.63
A3H	0.204	-0.0465
A3N	-0.349	-0.21
A3V	0.0935	0.00813
A3Q	0.292	-0.249
A3P	0.16	-0.173
A3D	0.186	0.572
A3M	-0.131	0.396
A3S	0.514	-0.0887
A3W	0.38	0.562
A3K	0.135	0.17
A3F	-0.338	0.0034
L10Y	0.409	0.302
L10D	0.404	0.0467
L10S	0.48	1.51
L10F	-0.0904	-0.0054
L10E	0.307	-0.18

Variant	scaled log2 fold change [1]	scaled log2 fold change [2]
L10K	-0.11	-0.14
L10R	0.663	
L10W	-0.304	0.734
L10Q	0.168	0.352
L10M	0.337	0.282
L10G	0.705	
L10V	0.189	-0.208
L10P	-0.379	
L10I	-0.165	0.0157
L10N	0.128	-0.352
L10C	-0.592	0.0724
L10T	0.0611	
L10H	0.222	-0.209
A7G	0.124	-0.098
A7N	-0.22	0.0857
A7L	0.0503	0.262
A7F	0.0991	0.612
A7T	0.268	
A7Q	-0.0571	
A7Y	0.0823	0.506
A7C	0.0253	0.515
A7H	0.443	0.0712
A7E	0.407	
A7M	-0.526	0.892

Variant	scaled log2 fold change [1]	scaled log2 fold change [2]
A7D	0.0271	0.843
A7K	0.136	-0.253
A7I	0.0041	-0.412
A7R	0.122	
A7P	0.316	
A7V	-0.5	0.903
A7W	0.0847	0.227
A7S	0.0146	0.154
A13Y	-0.585	0.259
A13P	0.188	
A13H	0.0738	-1.05
A13E	0.269	0.026
A13G	0.519	
A13N	0.0507	-0.531
A13F	0.0208	1.34
A13L	0.256	0.56
A13W	0.54	-0.436
A13I	-0.0121	0.147
A13K	0.137	-0.0857
A13R	-0.131	0.251
A13S	0.157	0.0322
A13Q	0.0333	0.653
A13M	-0.148	0.232
A13D	0.543	-0.132

Variant	scaled log2 fold change [1]	scaled log2 fold change [2]
A13C	0.224	0.158
A13V	0.347	
A13T	0.0105	-0.0204
A12S	0.0823	1.03
A12L	0.128	-0.0278
A12V	0.373	
A12I	0.306	-0.67
A12C	0.0882	0.2
A12H	0.526	0.197
A12R	-0.455	0.571
A12E	0.118	0.751
A12W	0.171	
A12P	-0.154	-0.436
A12F	0.00609	-0.148
A12G	0.259	-0.297
A12K	0.0242	-0.213
A12Q	0.144	0.91
A12D	0.231	0.265
A12N	-0.0628	0.996
A12Y	0.376	0.577
A12T	-0.00479	-0.247
A12M	-0.178	-0.222
R11M	-0.24	0.88
R11N	0.137	0.131

Variant	scaled log2 fold change [1]	scaled log2 fold change [2]
R11P	0.346	
R11F	0.139	-0.474
R11A	0.289	-0.22
R11W	0.0433	0.0594
R11V	0.177	-0.49
R11E	-0.0252	-0.275
R11D	0.509	
R11S	0.406	-0.404
R11G	0.36	-0.443
R11Y	0.189	0.793
R11T	0.0343	-0.658
R11L	0.0826	0.444
R11Q	0.24	0.0461
R11I	0.175	-0.673
R11K	0.0892	1.03
R11C	0.0344	-0.198
R11H	0.0541	-0.696
A15C	0.107	0.017
S14I	-0.891	-0.397
S14A	0.422	0.495
S14C	0.43	-0.264
S14K	-0.193	0.475
S14Q	-0.469	
S14M	0.348	0.298

Variant	scaled log2 fold change [1]	scaled log2 fold change [2]
S14D	0.306	
S14V	0.113	
S14R	0.602	
S14W	-0.0995	-0.0707
S14P	0.707	
S14E	0.366	0.442
S14F	-0.657	
S14L	-0.903	0.688
S14G	0.603	
S14H	-0.573	
S14Y	0.283	0.523
S14T	-0.472	
L9E	0.282	-0.224
L9P	0.629	0.0788
L9M	0.105	0.772
L9D	0.403	-0.529
L9R	0.455	-0.0809
L9Y	0.485	-0.192
L9G	0.0757	1.11
L9K	0.158	
L9C	0.282	-0.0336
L9Q	-0.0581	1.04
L9T	0.431	
L9W	0.434	0.233

Variant	scaled log2 fold change [1]	scaled log2 fold change [2]
L9F	-0.0603	0.0924
L9H	-0.458	0.226
L9V	0.286	-0.433
L9I	-0.993	-0.482
L9N	0.353	-0.636
L9S	0.156	-0.659
R8F	-0.388	-0.798
R8Q	0.308	-0.248
R8S	0.0501	-0.479
R8A	0.393	0.0204
R8P	0.109	-0.395
R8N	0.424	-0.174
R8D	0.629	-0.108
R8I	0.286	0.291
R8W	0.232	0.198
R8M	-0.909	-0.722
R8T	-0.656	-0.382
R8Y	0.407	0.189
R8K	0.28	-0.152
R8E	0.00393	-0.121
R8L	-0.0928	-0.46
R8V	0.395	0.881
R8C	0.116	1.05
R8H	0.292	-0.336

Variant	scaled log2 fold change [1]	scaled log2 fold change [2]
A2H	0.1	0.132
A2V	0.0325	0.473
A2Y	-0.115	-0.115
A2K	0.0757	-0.0727
A2C	0.441	0.0714
A2I	-0.127	-0.279
A2L	0.0991	-0.056
A2T	0.0597	-0.252
A2M	0.0773	0.0994
A2N	-0.0435	0.135
A2Q	-0.344	-0.344
A2R	0.187	0.489
A2F	0.0573	-0.164
A2S	-0.234	0.215
A2P	-0.0191	0.0189
A2D	0.173	0.487
A2G	0.451	
A2E	-0.26	0.752
A2W	-0.098	-0.566
A4M	0.0396	-0.34
A4V	-0.0619	-0.566
A4E	-0.03	-0.0483
A4W	0.154	-0.542
A4F	-0.326	0.068

Variant	scaled log2 fold change [1]	scaled log2 fold change [2]
A4L	-0.0228	0.193
A4S	0.221	0.988
A4C	0.0627	-1.09
A4R	-0.535	-1.29
A4I	0.158	0.102
A4K	0.11	0.267
A4D	0.12	-0.0733
A4Q	-0.35	
A4Y	0.257	0.669
A4G	-0.52	-0.212
A4N	0.0756	-0.335
A4T	0.364	0.164
G5A	-0.65	0.164
G5K	0.104	0.00379
G5D	0.153	0.63
G5Q	0.0157	-0.646
G5M	0.245	-0.441
G5N	0.381	0.127
G5S	0.203	-0.121
G5L	0.0231	-0.373
G5R	-0.43	-0.244
G5T	-0.0306	0.915
G5H	0.507	1.08
G5V	0.268	-0.396

Variant	scaled log2 fold change [1]	scaled log2 fold change [2]
G5E	-0.0118	0.75
G5Y	-0.325	0.00599
G5F	0.228	0.695
G5P	0.0147	-0.46
G5I	0.0847	-0.0288
G5W	0.225	0.578
G6E	0.0669	
G6A	0.239	-0.652
G6Q	0.208	-0.0414
G6S	-0.502	-0.676
G6R	0.173	0.123
G6I	0.0452	-0.31
G6V	-0.0163	0.974
G6K	0.0797	-0.166
G6C	0.339	0.86
G6Y	-0.0292	0.639
G6N	0.371	0.29
G6P	0.13	0.0736
G6L	0.106	0.412
G6F	0.153	-0.294
G6H	0.23	-1
G6D	-0.00796	-0.86
G6M	-0.159	-0.651
G6W	0.149	0.125
